For assay [1], the target named is T1, human epidermal growth factor receptor antigen (human, UniProt P00533 25-645, limits assumed).
T1 construct: whole entry named; also called EGFR
The experiment in a line: SPR (Biacore T200), 37 C; KD at 10 uM MTX / KD at 0 uM MTX. The method, then:
(§1) All binding kinetics analysis was performed on label-free Biacore surface plasmon biosensors (Biacore T200™ from GE Life Sciences) at 37° C. in 10 mM Hepes pH 7.4, 150 mM NaCl, 0.05% Tween-20 (HBST+), with or without 10 µM MTX. The Biacore data were processed in Biacore T200 Evaluation Software, and the data were double-referenced (Myszka, 1999, J Mol Recognit 12(5):279-284) and fit globally to a simple Langmuir with mass transport model to determine the equilibrium dissociation constant, KD, from the ratio of the kinetic rate constants (KD = koff/kₒₙ). In some cases the binding of antigen was very low (or not detectable) in the presence of 10 µM MTX and as a result kinetic rate constants could not be accurately determined. In these cases, a KD (or KD limit) was estimated based on the binding response at the highest analyte concentration tested or based on the typical limit of detection for a Biacore T200.
(§2) The first 4 rounds of panning used biotinylated EGFR antigen captured on streptavidin or neutravidin coated 96-well plates. […] 1536 clones were randomly chosen from the 4th and 5th round of panning against the EGFR antigen and their binding specificity determined by phage ELISA.

The target of assay [2] is T1, human epidermal growth factor receptor …. As to the kind of experiment: SPR (Biacore T200), 37 C, scFv-Fc, 10 uM MTX. The method, then: as §1, §2
(§3) “*”: For interactions where kₒₙ and koff are reported, the KD was calculated using koff/kₒₙ.

For assay [3] the target is unchanged. As to the kind of experiment: SPR (Biacore T200), 37 C, scFv-Fc, 0 uM MTX. The method, then:
as §1, §2
On the technique in general: SPR reads the build-up and loss of mass on a sensor chip optically.

Assay [4] concerns the target T2, human CD33 antigen (human, UniProt P20138 18-259, limits assumed).
T2 construct: whole entry named; also called Siglec-3
As to the kind of experiment: SPR (Biacore T200), 37 C, scFv-Fc, 10 uM MTX. The method, then: as §1, §3

Assay [5] deals with T2, human CD33 antigen. The experiment in a line: SPR (Biacore T200), 37 C; KD at 10 uM MTX / KD at 0 uM MTX. The method, then: as §1
Assay [6] has as its target T2, human CD33 antigen. As to the kind of experiment: SPR (Biacore T200), 37 C, scFv-Fc, 0 uM MTX. The method, then:
as §1

For assay [7], the target named is T2, human CD33 antigen. The experiment in a line: SPR (Biacore T200), 37 C, scFv-Fc, 10 uM MTX; KD estimated, rate constants not determined. The method, then:
as §1, §3

T2 sequence (P20138 18-259 limits assumed): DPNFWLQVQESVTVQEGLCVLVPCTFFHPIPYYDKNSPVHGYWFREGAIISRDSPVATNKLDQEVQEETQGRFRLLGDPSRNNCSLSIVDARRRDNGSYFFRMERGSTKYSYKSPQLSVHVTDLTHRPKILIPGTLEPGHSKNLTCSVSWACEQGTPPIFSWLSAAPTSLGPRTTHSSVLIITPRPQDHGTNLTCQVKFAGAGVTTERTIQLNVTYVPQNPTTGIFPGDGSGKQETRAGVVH

B1: P15_F02 scFv-Fc fusion (scFv, V domains shown)
VH: QVQLVESGGGLVQAGGSLRLSCAASRRSSRSWAMHWVRQAPGKGLEWVAVISYDGRLKYYADSVKGRFTISRDNAEYLVYLQMNSLRAEDTAVYYCAAARDVDGSGYDTIDVWGQGTLVTVSS
VL: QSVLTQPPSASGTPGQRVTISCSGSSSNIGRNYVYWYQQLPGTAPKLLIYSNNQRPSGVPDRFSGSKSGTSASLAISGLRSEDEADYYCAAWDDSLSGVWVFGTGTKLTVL
notes: Tested as scFv-Fc fusion
The term Kd denotes the constant that tells how readily two partners part at equilibrium. Usually koff stands for the first-order rate constant of dissociation. The kon is the rate constant with which the complex forms. Read a low kon as slow association. For the molecule B1, in assay [1], the “Ratio: KD with MTX / KD without MTX” value came out at 9.5. In assay [2], binding was characterised by a dissociation constant (Kd) of 2530 nM, the koff was 0.13 s⁻¹ and the kon amounted to 50000 M⁻¹ s⁻¹. In assay [3], this molecule had a Kd of 266 nM, a koff of 0.022 s⁻¹ and a kon of 82000 M⁻¹ s⁻¹.

B2: P01_H04 scFv-Fc fusion (scFv, V domains shown)
VH: QVQLVESGGGLVQAGGSLRLSCAASRRSSRSWAMHWVRQAPGKGLEWVAVISYDGRLKYYADSVKGRFTISRDNAEYLVYLQMNSLRAEDTAVYYCAADMDDMLSYYNSFDIWGQGTLVTVSS
VL: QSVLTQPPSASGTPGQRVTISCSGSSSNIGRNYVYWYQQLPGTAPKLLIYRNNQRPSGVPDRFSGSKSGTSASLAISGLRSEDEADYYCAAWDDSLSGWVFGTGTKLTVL
notes: Tested as scFv-Fc fusion
Regarding B2, the “Ratio: KD with MTX / KD without MTX” value in assay [1] is over 2. In assay [3], this molecule yielded a Kd of 889 nM, a koff of 0.076 s⁻¹ and a kon of 85000 M⁻¹ s⁻¹.

B3: P14_E03 scFv-Fc fusion (scFv, V domains shown)
VH: QVQLVESGGGLVQAGGSLRLSCAASRRSSRSWAMHWVRQAPGKGLEWVAVISYDGRLKYYADSVKGRFTISRDNAEYLVYLQMNSLRAEDTAVYYCAAAPRVDWSDVSSGIDYWGQGTLVTVSS
VL: QSVLTQPPSASGTPGQRVTISCSGSISNIGTNNVYWYQQLPGTAPKLLIYRNNQRPSGVPDRFSGSKSGTSASLAISGLRSEDEADYYCSAWDDSLSGVVFGTGTKLTVL
notes: Tested as scFv-Fc fusion
On to B3, for which, in assay [1], the “Ratio: KD with MTX / KD without MTX” value came out at 3.9. In addition, in assay [2], the Kd was 25 nM, the koff was 0.00072 s⁻¹ and the kon is 29000 M⁻¹ s⁻¹. In assay [3], the affinity, expressed as Kd, was 6.3 nM; the koff worked out at 0.00067 s⁻¹; the association rate constant (kon) is 110000 M⁻¹ s⁻¹.

B4: P01_F02 scFv-Fc fusion (scFv, V domains shown)
VH: QVQLVESGGGLVQAGGSLRLSCAASRRSSRSWAMHWVRQAPGKGLEWVAVISYDGRLKYYADSVKGRFTISRDNAEYLVYLQMNSLRAEDTAVYYCAADVESALAYGEPYHHMDVWGQGTLVTVSS
VL: QSVLTQPPSASGTPGQRVTISCSGSSSNIGRNYVYWYQQLPGTAPKLLIYRTSQRPSGVPDRFSGSKSGTSASLAISGLRSEDEADYYCATWDDSLSGWVFGTGTKLTVL
notes: Tested as scFv-Fc fusion
Take B4: the “Ratio: KD with MTX / KD without MTX” value in assay [1] was over 50. Moreover, in assay [3], the Kd was determined as 188 nM, the koff was 0.011 s⁻¹ and the kon came to 61000 M⁻¹ s⁻¹.

B5: P07_H08 scFv-Fc fusion (scFv, V domains shown)
VH: QVQLVESGGGLVQAGGSLRLSCAASRRSSRSWAMHWVRQAPGKGLEWVAVISYDGRLKYYADSVKGRFTISRDNAEYLVYLQMNSLRAEDTAVYYCAAGFDWGWDSSDIYSAMDYWGQGTLVTVSS
VL: DIQMTQSPSSLSASVGDRVTITCRASQNIGRYLHWYQQKPGKAPKLLIYSASNLQSGVPSRFSGSGSGTDFTLTISSLQPEDFATYYCQQSYSSPFTFGQGTKVEIK
notes: Tested as scFv-Fc fusion
Consider B5, for which the “Ratio: KD with MTX / KD without MTX” value in assay [1] is over 11. In assay [3], binding was put at a Kd of 823 nM, the koff is 0.27 s⁻¹ and the kon came to 330000 M⁻¹ s⁻¹.

B6: P04_C05 scFv-Fc fusion (scFv, V domains shown)
VH: QVQLVESGGGLVQAGGSLRLSCAASRRSSRSWAMHWVRQAPGKGLEWVAVISYDGRLKYYADSVKGRFTISRDNAEYLVYLQMNSLRAEDTAVYYCAAGLPWTDYWGQGTLVTVSS
VL: QSVLTQPPSASGTPGQRVTISCSGSNSNIGSNYVSWYQQLPGTAPKLLIYSNNQRPSGVPDRFSGSKSGTSASLAISGLRSEDEADYYCAAWDDRLSVVFGTGTKLTVL
notes: Tested as scFv-Fc fusion
In the assay with human CD33 antigen [4], B6 yielded a Kd of 298 nM, a koff of 0.013 s⁻¹ and a kon of 45000 M⁻¹ s⁻¹. Further, in the assay with human CD33 antigen [5], the “Ratio: KD with MTX / KD without MTX” value worked out at 12. In addition, in the assay with human CD33 antigen [6], the Kd is 25 nM, the koff came to 0.0021 s⁻¹ and the kon was 83000 M⁻¹ s⁻¹.

B7: P08_E05 scFv-Fc fusion (scFv, V domains shown)
VH: QVQLVESGGGLVQAGGSLRLSCAASRRSSRSWAMHWVRQAPGKGLEWVAVISYDGRLKYYADSVKGRFTISRDNAEYLVYLQMNSLRAEDTAVYYCAADGKGAAWSEVDEPDVWGQGTLVTVSS
VL: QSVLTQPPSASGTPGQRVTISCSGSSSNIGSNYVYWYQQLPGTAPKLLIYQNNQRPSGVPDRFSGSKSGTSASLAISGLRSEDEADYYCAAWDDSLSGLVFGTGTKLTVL
notes: Tested as scFv-Fc fusion
Consider B7, for which, in assay [1], the “Ratio: KD with MTX / KD without MTX” value came out at 1.3. Further, in assay [2], the Kd was determined as 480 nM, the koff came to 0.073 s⁻¹ and the kon is 150000 M⁻¹ s⁻¹. Besides, in assay [3], the Kd is 360 nM, the koff worked out at 0.071 s⁻¹ and the kon is 200000 M⁻¹ s⁻¹.

B8: P01_A09 scFv-Fc fusion (scFv, V domains shown)
VH: QVQLVESGGGLVQAGGSLRLSCAASRRSSRSWAMHWVRQAPGKGLEWVAVISYDGRLKYYADSVKGRFTISRDNAEYLVYLQMNSLRAEDTAVYYCAAERPTSDGSTGGMDVWGQGTLVTVSS
VL: DIQMTQSPSSLSASVGDRVTITCRASQSISSYLNWYQQKPGKAPKLLIYGASTLQSGVPSRFSGSGSGTDFTLTISSLQPEDFATYYCQQSYSSGTFGQGTKVEIK
notes: Tested as scFv-Fc fusion
With B8, the “Ratio: KD with MTX / KD without MTX” value in the assay with human CD33 antigen [5] amounted to 8.5. In addition, the Kd with human CD33 antigen [7] is 1300 nM. In the assay with human CD33 antigen [6], this molecule registered an equilibrium dissociation constant (Kd) of 154 nM, a koff of 0.017 s⁻¹ and a kon of 110000 M⁻¹ s⁻¹.

B9: P02_E11 scFv-Fc fusion (scFv, V domains shown)
VH: QVQLVESGGGLVQAGGSLRLSCAASRRSSRSWAMHWVRQAPGKGLEWVAVISYDGRLKYYADSVKGRFTISRDNAEYLVYLQMNSLRAEDTAVYYCAAEASTDNGLDYWGQGTLVTVSS
VL: DIQMTQSPSSLSASVGDRVTITCRASQTISRHLNWYQQKPGKAPKLLIYSASSLASGVPSRFSGSGSGTDFTLTISSLQPEDFATYYCQQSHSAGTFGQGTKVEIK
notes: Tested as scFv-Fc fusion
Regarding B9, the “Ratio: KD with MTX / KD without MTX” value in the assay with human CD33 antigen [5] is 221. Further, the Kd with human CD33 antigen [7] was 14600 nM. In the assay with human CD33 antigen [6], this molecule displayed a dissociation constant Kd of 66 nM, a koff of 0.0038 s⁻¹ and a kon of 58000 M⁻¹ s⁻¹.

B10: P02_H01 scFv-Fc fusion (scFv, V domains shown)
VH: QVQLVESGGGLVQAGGSLRLSCAASRRSSRSWAMHWVRQAPGKGLEWVAVISYDGRLKYYADSVKGRFTISRDNAEYLVYLQMNSLRAEDTAVYYCAAGSGGGDGLDVWGQGTLVTVSS
VL: DIQMTQSPSSLSASVGDRVTITCRASQTISSYLNWYQQKPGKAPKLLIYSSSTLQGGVPSRFSGSGSGTDFTLTISSLQPEDFATYYCQQSYSSGTFGQGTKVEIK
notes: Tested as scFv-Fc fusion
With B10, the “Ratio: KD with MTX / KD without MTX” value in the assay with human CD33 antigen [5] turned out to be 3.3. Moreover, the Kd with human CD33 antigen [7] is 4340 nM. In the assay with human CD33 antigen [6], this molecule registered a Kd of 1320 nM, a koff of 0.037 s⁻¹ and a kon of 28000 M⁻¹ s⁻¹.

B11: P08_D06 scFv-Fc fusion (scFv, V domains shown)
VH: QVQLVESGGGLVQAGGSLRLSCAASRRSSRSWAMHWVRQAPGKGLEWVAVISYDGRLKYYADSVKGRFTISRDNAEYLVYLQMNSLRAEDTAVYYCAADDDGDVYAGYSYGGFDYWGQGTLVTVSS
VL: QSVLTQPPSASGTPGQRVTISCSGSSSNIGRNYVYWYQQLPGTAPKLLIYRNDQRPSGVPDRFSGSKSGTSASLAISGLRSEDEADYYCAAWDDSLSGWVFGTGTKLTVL
notes: Tested as scFv-Fc fusion
As to B11, the “Ratio: KD with MTX / KD without MTX” value in assay [1] stood at 7.5. Further, in assay [2], binding was put at a Kd of 1390 nM, the koff worked out at 0.033 s⁻¹ and the kon came to 24000 M⁻¹ s⁻¹. In assay [3], this molecule displayed a Kd of 185 nM, a koff of 0.013 s⁻¹ and an association rate constant (kon) of 71000 M⁻¹ s⁻¹.

B12: P05_A11 scFv-Fc fusion (scFv, V domains shown)
VH: QVQLVESGGGLVQAGGSLRLSCAASRRSSRSWAMHWVRQAPGKGLEWVAVISYDGRLKYYADSVKGRFTISRDNAEYLVYLQMNSLRAEDTAVYYCAASDDADIFDDYSYGAMDYWGQGTLVTVSS
VL: QSVLTQPPSASGTPGQRVTISCSGSSSNIGRNYVYWYQQLPGTAPKLLIYMTSQRPSGVPDRFSGSKSGTSASLAISGLRSEDEADYYCASWDDNLRAWVFGTGTKLTVL
notes: Tested as scFv-Fc fusion
Take B12: in assay [1], the “Ratio: KD with MTX / KD without MTX” value came out at 2.5. In assay [2], the affinity, expressed as Kd, was 580 nM; the koff was determined as 0.05 s⁻¹; the kon stood at 87000 M⁻¹ s⁻¹. In assay [3], the dissociation constant (Kd) came to 235 nM, the koff stood at 0.028 s⁻¹ and the association rate constant (kon) came to 120000 M⁻¹ s⁻¹.

B13: P01_B06 scFv-Fc fusion (scFv, V domains shown)
VH: QVQLVESGGGLVQAGGSLRLSCAASRRSSRSWAMHWVRQAPGKGLEWVAVISYDGRLKYYADSVKGRFTISRDNAEYLVYLQMNSLRAEDTAVYYCAADTSMFASYDPMDVWGQGTLVTVSS
VL: QSVLTQPPSASGTPGQRVTISCSGSSSNIGRNYVNWYQQLPGTAPKLLIYRDDHRPSGVPDRFSGSKSGTSASLAISGLRSEDEADYYCASWDDTLSGWVFGTGTKLTVL
notes: Tested as scFv-Fc fusion
Regarding B13, in assay [1], the “Ratio: KD with MTX / KD without MTX” value was 1.1. In assay [2], this molecule gave a dissociation constant Kd of 256 nM, a koff of 0.026 s⁻¹ and a kon of 100000 M⁻¹ s⁻¹. Also, in assay [3], the Kd was found to be 230 nM, the koff came to 0.024 s⁻¹ and the on-rate constant (kon) is 100000 M⁻¹ s⁻¹.
